The series concerns the molecule itself. Kind of series: SEC; analytical Superdex 200 10/60; 100 µl at 0.5 mg/ml; 50 mM Tris-HCl, 150 mM NaCl, 5% glycerol, pH 7.5 (legend: 20 mM Tris-HCl, 150 mM NaCl, pH 7.5); elution compared with standards.

B1: PksI, bacillaene synthase decarboxylase (wild type) (enzyme, Bacillus subtilis 168)
chain: MTHSVVELIEIESAIIQVKMQDRTHKNAFSQELTDDLIQAFEYIRQNPKYKAVILTGYDNYFASGGTQEGLLRIQQGLTKFTDDNLYSLALDCEIPVIAAMQGHGIGGGFVMGLFADIVILSRESVYTANFMKYGFTPGMGATFIVPKKLGFSLAQEILLNAGSYRGADLEKRGVPFKVLPRAEVLDYAVELAQELAEKPRNSLVTLKDHLVAPLRDQLPRVIEQELMMHEKTFHHEEVKSRIKGLYGN
notes: PksI of Bacillus subtilis 168, amplified from genomic DNA and cloned into pOPINF; the crystal models hold residues 1-249; The His tag is 3C protease cleavable (pOPINF); also called WT PksI; source: E. coli BL21(DE3), purified (HisTrap, Superdex 200 SEC)
B1: the “stoichiometry N” value came to 3.

B2: PksH, bacillaene synthase dehydratase (wild type) (enzyme, Bacillus subtilis 168, UniProt P40805 1-259, looked up)
chain: MDLVTYQTIKVRFQASVCYITFHRPEANNTINDTLIEECLQVLNQCETSTVTVVVLEGLPEVFCFGADFQEIYQEMKRGRKQASSQEPLYDLWMKLQTGPYVTISHVRGKVNAGGLGFVSATDIAIADQTASFSLSELLFGLYPACVLPFLIRRIGRQKAHYMTLMTKPISVQEASEWGLIDAFDAESDVLLRKHLLRLRRLNKKGIAHYKQFMSSLDHQVSRAKATALTANQDMFSDPQNQMGIIRYVETGQFPWEDQ
notes: PksH of Bacillus subtilis 168, amplified from genomic DNA and cloned into pET28a (NdeI/XhoI); The His tag is thrombin cleavable (pET28a); also called WT PksH; source: E. coli BL21(DE3), purified (HisTrap, Superdex 200 SEC)
Consider B2, for which the “stoichiometry N” value is 3.

Source of the values: PMC7501309, “Structure and mechanism of a dehydratase/decarboxylase enzyme couple involved in polyketide β-methyl branch incorporation” (Scientific Reports, 2020).
